Laboratory results taken from PMC11189632.

Experiments:
Experiment in all cases: co-IP
[1] = target: β2m-assembled HA-HLA-C*05:01 (human | human (endogenous in HeLa))
[2] = target: β2m-assembled HA-HLA-C*07:02 (human | human (endogenous in HeLa))
[3] = target: β2m-assembled HA-HLA-G*01:01 (human | human (endogenous in HeLa))

B1: HCMV glycoprotein US10, untagged, transiently expressed (natural protein)
chain: ATEETREPTYFTCGCVIQNHVLKGAVKLYGQFPSPKTLRASAWLHDGENHERHRQPILVEGTATATEALYILLPTELSSPEGNRPRNYSATLTLASRDCYERFVCPVYDSGTPMGVLMNLTYLWYLGDYGAILKIYFGLFCGACVITRSLLLICGYYPPRE
- US10 signal intensity relative to the maximum (HLA-G-bound US10) [1]: 0.7 fold of max
- US10 signal intensity relative to the maximum (HLA-G-bound US10) [2]: 0.2 fold of max
- US10 signal intensity relative to the maximum (HLA-G-bound US10) [3]: 1 fold of max
